{"source": "patent US20240158477A1", "key": {"[1]": {"molecular_target": "RBD-Fc (SARS-CoV-2 S protein amino acids 319-541 with human IgG1 Fc) (SARS-CoV-2; human) (UniProt P0DTC2)"}, "[2]": {"molecular_target": "SARS-CoV-2 S protein (wildtype) (SARS-CoV-2) (UniProt P0DTC2)", "assay": "cell-based or functional assay"}}, "data": [{"substance": "Fc tagged VHH72 (Fc fusion)", "values": [{"measurement": "EC50 (read off the curve)", "setting": "[1]", "value": 0.2, "unit": "nM"}, {"measurement": "IC50, authentic SARS-CoV-2 neutralization on Vero-E6 cells (viral RNA by RT-PCR)", "setting": "[2]", "value": 13.8, "unit": "nM"}]}]}
